The target in assay [1] is T1, human VEGF165 (R&D) (human, UniProt P15692-4 27-191).
T1 construct: Antigen of the ForteBio assay
The assay can be described thus: BLI (ForteBio), monovalent binding. On the technique in general: BLI is a label-free optical method that tracks binding on a fibre tip over time.

Assay [2] concerns the target T1, human VEGF165 (R&D). The assay can be described thus: BLI (ForteBio), bivalent binding; * dissociation constant exceeding ForteBio detection limits.
The target in assay [3] is T1, human VEGF165 (R&D). Put plainly: BLI (ForteBio), bivalent binding.
In assay [4] the target is T2, biotin-labeled VEGF A165 (ACRO, Catalog No. VE5-H8210) (human, UniProt P15692-4 27-191, biotin-labeled).
T2 construct: also called hVEGF A
T2 sequence (P15692 other isoform, or with tags, fused parts or gaps limits assumed): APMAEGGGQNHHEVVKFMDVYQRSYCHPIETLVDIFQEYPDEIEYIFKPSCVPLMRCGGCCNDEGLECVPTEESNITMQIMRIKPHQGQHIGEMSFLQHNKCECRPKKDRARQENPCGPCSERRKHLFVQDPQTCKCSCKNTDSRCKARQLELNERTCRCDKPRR
The assay can be described thus: blocking ELISA: biotin VEGF A165 captured on streptavidin, binding of VEGFR-Fc blocked; value printed as EC50 in the table under the curves, unit from the axis. Here is the method: SA (Thermo, Catalog No. 21125) was diluted to 1 μg/mL, and 100 μL/well of SA was plated in a microplate at 4° C. overnight. The plate was washed 3 times with PBST and blocked with 3% BSA for 1.5 h. […] The plate was washed 6 times with PBST, the color development was performed with TMB for 5 min, and OD450 nm was read after stopping.
Background: In an ELISA, binding on a coated surface is turned into a signal by an enzyme label.

Assay [5] addresses T3, human Ang2 (human, UniProt O15123 19-496, limits assumed).
T3 construct: Antigen of the ForteBio assay; also called human Ang2 (Beijing Sino Biological)
T3 sequence (looked up): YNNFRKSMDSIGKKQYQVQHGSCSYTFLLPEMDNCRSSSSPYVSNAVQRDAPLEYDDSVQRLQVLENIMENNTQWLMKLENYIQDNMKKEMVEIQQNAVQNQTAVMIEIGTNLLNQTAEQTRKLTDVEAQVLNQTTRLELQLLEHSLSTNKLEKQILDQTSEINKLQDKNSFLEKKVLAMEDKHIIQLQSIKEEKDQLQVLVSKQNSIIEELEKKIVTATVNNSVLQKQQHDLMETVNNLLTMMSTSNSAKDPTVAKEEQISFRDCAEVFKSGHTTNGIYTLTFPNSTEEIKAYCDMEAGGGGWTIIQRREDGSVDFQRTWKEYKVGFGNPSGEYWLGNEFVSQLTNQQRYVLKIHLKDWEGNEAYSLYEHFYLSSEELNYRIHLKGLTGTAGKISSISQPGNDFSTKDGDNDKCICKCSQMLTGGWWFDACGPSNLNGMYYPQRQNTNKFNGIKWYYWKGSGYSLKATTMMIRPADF
Put plainly: BLI (ForteBio), bivalent binding; * dissociation constant exceeding ForteBio detection limits.

Assay [6] has as its target T3, human Ang2. The assay can be described thus: BLI (ForteBio), bivalent binding.
Assay [7] addresses T4, hAng2-biotin (R&D, Catalog No. BT623B/CF) (human, UniProt O15123 68-496, limits assumed, biotinylated).
T4 construct: also called Ang2-Bio (R&D, Catalog No. BT623B/CF); Recombinant Biotinylated hAngiopoietin-2 protein (R&D)
T4 sequence (looked up): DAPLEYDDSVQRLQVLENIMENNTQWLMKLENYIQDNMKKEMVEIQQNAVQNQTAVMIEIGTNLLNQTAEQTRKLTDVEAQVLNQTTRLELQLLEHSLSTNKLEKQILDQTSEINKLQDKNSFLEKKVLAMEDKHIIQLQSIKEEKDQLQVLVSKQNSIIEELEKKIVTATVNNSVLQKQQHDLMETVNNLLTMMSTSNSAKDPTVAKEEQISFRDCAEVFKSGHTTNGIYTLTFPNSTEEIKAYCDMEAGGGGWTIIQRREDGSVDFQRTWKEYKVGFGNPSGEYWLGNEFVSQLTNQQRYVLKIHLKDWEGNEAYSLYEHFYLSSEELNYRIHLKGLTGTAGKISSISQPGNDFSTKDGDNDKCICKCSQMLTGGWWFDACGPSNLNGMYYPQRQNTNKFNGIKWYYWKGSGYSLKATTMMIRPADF
Put plainly: blocking ELISA: Tie2-Fc coated, binding of hAng2-biotin blocked. Here is the method:
The plate was washed 3 times with PBST and blocked with 3% BSA for 1.5 h. […] The plate was washed 3 times with PBST, Avidin HRP (1:2000) was added, and the plate was incubated for 35 min. The plate was washed 6 times with PBST, the color development was performed with TMB for 5 min, and OD450 nm was read after stopping.

T1 sequence (P15692 other isoform, or with tags, fused parts or gaps limits assumed): as the sequence (P15692 other isoform, or with tags, fused parts or gaps limits assumed) above

B1: LA42F8 (VEGFA VHH) (VHH)
VHH: QLQLVESGGGLVQPGGSLRLSCAASGFNLDYYPIGWFRQAPGKEREGVSCISSVGSTNYADSVKGRFTISRDNAKNTVYLQMNSLKPEDTAVYYCAADPLCSALILPPPFLSWGQGTQVTVSS
notes: Alpaca anti-VEGF A VHH; also called LA42F8 supernatant
For B1, the Kd came out at 6.11 nM with human VEGF165 (R&D) [1] and 0.843 nM with human VEGF165 (R&D) [3]. Moreover, the koff with human VEGF165 (R&D) [1] was 0.00116 s⁻¹; with human VEGF165 (R&D) [2] it was no more than 0.0002 s⁻¹. In addition, the kon is 189000 M⁻¹ s⁻¹ with human VEGF165 (R&D) [1] and 237000 M⁻¹ s⁻¹ with human VEGF165 (R&D) [3]. The molecule further registered an EC50 in assay [4] of 0.0149 µg/mL.

B2: LA24C11.10 (Ang2 VHH) (VHH)
VHH: EVQLLESGGGLVQPGGSLRLSCAASGFALDYYAIGWFRQAPGKGLEGVSCISSGEGSTYYADSVKGRFTISRDNSKNTVYLQMNSLRAEDTAVYYCATDSRGDDVACEGLRRNEYDYWGQGTLVTVSS
notes: Humanized anti-Ang2 VHH; also called hz24C11.10; LA24C11.0
In the assay with human Ang2 [5], B2 came in with a koff of no more than 0.0002 s⁻¹. Also, in the assay with human Ang2 [6], the Kd was no more than 0.828 nM and the on-rate constant (kon) was found to be 242000 M⁻¹ s⁻¹. Moreover, the “IC50 (read off the curve)” value in assay [7] was roughly 0.06 µg/mL.

As a reminder, the koff is a measure of how fast the partners let go of each other. Read a high koff as fast dissociation. A word on the kon: it is the rate constant with which the complex forms. By EC50 is commonly meant the concentration at which the effect is half-maximal.
